Experimental data reported in patent US20230235304.
Numbering of substitutions follows the chain as printed.

Experiments:
Assay in all cases: cell_activity
Details in all cases: PAM 5'-GCTG-3'; HEK293T; averaged over AAVS1, VEGFA, EMX1 targets
[1] = tested on: T1, CRISPR nuclease variant D509R D509R (synthetic construct)
T1 sequence: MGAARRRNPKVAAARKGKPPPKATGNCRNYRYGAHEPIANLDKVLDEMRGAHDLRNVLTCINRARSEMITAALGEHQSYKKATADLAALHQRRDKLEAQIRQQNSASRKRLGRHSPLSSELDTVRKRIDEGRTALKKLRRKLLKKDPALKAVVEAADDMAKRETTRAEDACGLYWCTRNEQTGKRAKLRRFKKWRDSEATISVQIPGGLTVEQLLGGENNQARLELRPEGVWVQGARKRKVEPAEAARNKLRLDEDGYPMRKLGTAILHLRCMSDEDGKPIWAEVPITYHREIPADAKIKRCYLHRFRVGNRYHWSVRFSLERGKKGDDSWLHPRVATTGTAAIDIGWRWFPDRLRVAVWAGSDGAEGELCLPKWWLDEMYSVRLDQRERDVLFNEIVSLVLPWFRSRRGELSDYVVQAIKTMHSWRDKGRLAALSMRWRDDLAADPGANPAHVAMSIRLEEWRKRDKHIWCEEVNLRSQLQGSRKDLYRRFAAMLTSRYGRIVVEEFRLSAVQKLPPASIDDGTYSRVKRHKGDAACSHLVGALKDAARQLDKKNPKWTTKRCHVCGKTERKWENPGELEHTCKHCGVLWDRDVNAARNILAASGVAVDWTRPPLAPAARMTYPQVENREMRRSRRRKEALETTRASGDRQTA

[2] = tested on: T2, CRISPR nuclease variant D535G,L516R,I521R D535G,L516R,I521R (synthetic construct)
T2 sequence: T1 sequence with R509D, L516R, I521R, D535G

[3] = tested on: T3, CRISPR nuclease variant L580G,A512R L580G,A512R (synthetic construct)
T3 sequence: T1 sequence with R509D, A512R, L580G

[4] = tested on: T4, CRISPR nuclease variant S78K,E198R,R354G S78K,E198R,R354G (synthetic construct)
T4 sequence: T1 sequence with S78K, E198R, R354G, R509D

Which binding signal (fold indels vs WT) [1] does the source give for “GGUCCCAUCGGAACGGGUUGUGGUUCCGACGGAGGGAUACAUUGGUGGGG / GGAGGGATACATTGGTGGGG / CCCCACCAATGTATCCCTCC [AAVS1 crRNA (Table 5) ; AAVS1 target (Table 5)]” here?
The binding signal (fold indels vs WT) was 3.91.

What about the binding signal (fold indels vs WT) [2] of the same sequence?
The binding signal (fold indels vs WT) was 3.59.

And the binding signal (fold indels vs WT) [3]?
Its binding signal (fold indels vs WT) is 3.75.

What about the binding signal (fold indels vs WT) [4] of the same sequence?
Its binding signal (fold indels vs WT) is 4.14.
